# According to US20140140998:
# T1: GST-TβRI intracellular domain fusion protein
# T1 chain: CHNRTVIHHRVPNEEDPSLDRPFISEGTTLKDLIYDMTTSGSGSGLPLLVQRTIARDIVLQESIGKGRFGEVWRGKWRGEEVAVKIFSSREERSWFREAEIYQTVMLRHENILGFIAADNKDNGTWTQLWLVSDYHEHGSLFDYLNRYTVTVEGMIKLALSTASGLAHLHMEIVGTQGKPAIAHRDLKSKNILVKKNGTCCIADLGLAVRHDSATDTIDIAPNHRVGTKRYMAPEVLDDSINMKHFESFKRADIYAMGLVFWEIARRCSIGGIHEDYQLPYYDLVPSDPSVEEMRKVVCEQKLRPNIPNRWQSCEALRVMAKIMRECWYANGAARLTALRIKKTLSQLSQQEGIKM
# T2: type I receptor of transforming growth factor beta (TβRI), endogenous, full length
# T2 chain: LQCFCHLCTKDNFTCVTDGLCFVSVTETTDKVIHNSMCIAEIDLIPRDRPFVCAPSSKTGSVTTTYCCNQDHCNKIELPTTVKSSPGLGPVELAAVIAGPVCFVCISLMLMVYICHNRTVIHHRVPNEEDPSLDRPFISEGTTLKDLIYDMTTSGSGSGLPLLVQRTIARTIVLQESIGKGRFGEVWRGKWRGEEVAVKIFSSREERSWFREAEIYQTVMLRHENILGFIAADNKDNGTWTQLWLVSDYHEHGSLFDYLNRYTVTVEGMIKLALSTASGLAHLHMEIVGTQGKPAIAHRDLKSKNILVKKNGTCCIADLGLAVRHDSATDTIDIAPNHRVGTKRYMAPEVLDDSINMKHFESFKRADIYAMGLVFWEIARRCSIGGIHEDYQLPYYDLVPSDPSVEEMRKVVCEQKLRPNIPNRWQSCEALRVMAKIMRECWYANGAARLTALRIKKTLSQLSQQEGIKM
# B1: recombinant glutathione-S-transferase-tagged TRAF6 (GST-TRAF6) fusion protein (protein)
# chain: MSLLNCENSCGSSQSESDCCVAMASSCSAVTKDDSVGGTASTGNLSSSFMEEIQGYDVEFDPPLESKYECPICLMALREAVQTPCGHRFCKACIIKSIRDAGHKCPVDNEILLENQLFPDNFAKREILSLMVKCPNEGCLHKMELRHLEDHQAHCEFALMDCPQCQRPFQKFHINIHILKDCPRRQVSCDNCAASMAFEDKEIHDQNCPLANVICEYCNTILIREQMPNHYDLDCPTAPIPCTFSTFGCHEKMQRNHLARHLQENTQSHMRMLAQAVHSLSVIPDSGYISEVRNFQETIHQLEGRLVRQDHQIRELTAKMETQSMYVSELKRTIRTLEDKVAEIEAQQCNGIYIWKIGNFGMHLKCQEEEKPVVIHSPGFYTGKPGYKLCMRLHLQLPTAQRCANYISLFVHTMQGEYDSHLPWPFQGTIRLTILDQSEAPVRQNHEEIMDAKPELLAFQRPTIPRNPKGFGYVTFMHLEALRQRTFIKDDTLLVRCEVSTRFDMGSLRREGFQPRSTDAGV
# B2: tumor necrosis factor receptor-associated factor 6 (TRAF6), endogenous (protein)
# chain: MSLLNCENSCGSSQSESDCCVAMASSCSAVTKDDSVGGTASTGNLSSSFMEEIQGYDVEFDPPLESKYECPICLMALREAVQTPCGHRFCKACIIKSIRDAGHKCPVDNEILLENQLFPDNFAKREILSLMVKCPNEGCLHKMELRHLEDHQAHCEFALMDCPQCQRPFQKFHINIHILKDCPRRQVSCDNCAASMAFEDKEIHDQNCPLANVICEYCNTILIREQMPNHYDLDCPTAPIPCTFSTFGCHEKMQRNHLARHLQENTQSHMRMLAQAVHSLSVIPDSGYISEVRNFQETIHQLEGRLVRQDHQIRELTAKMETQSMYVSELKRTIRTLEDKVAEIEAQQCNGIYIWKIGNFGMHLKCQEEEKPVVIHSPGFYTGKPGYKLCMRLHLQLPTAQRCANYISLFVHTMQGEYDSHLPWPFQGTIRLTILDQSEAPVRQNHEEIMDAKPELLAFQRPTIPRNPKGFGYVTFMHLEALRQRTFIKDDTLLVRCEVSTRFDMGSLRREGFQPRSTDAGV
# Tests used:
# [1] = target: T1, GST-TβRI intracellular domain fusion …
# [2] = target: T2, type I receptor of transforming growth …
Protein,polyubiquitination of TβRI in an in vitro ubiquitination assay [1],Lys63-linked polyubiquitination of TβRI and formation of the TβRI ICD after TRAF6 siRNA [2]
B1,TRAF6 was shown to induce the polyubiquitination of TβRI in an in vitro ubiquitination assay,
B2,,a knock-down of endogenous TRAF6 in PC-3U cells with an anti-TRAF6 siRNA also resulted in loss of both Lys63-linked polyubiquitination in TβRI and the formation of the TβRI ICD in response to TGFβ stimulation
